Values joined by “and” are separate entries in the source; they are usually repeats but may differ in a detail not shown here. Equal entries are not always repeated.
How the values were obtained:
Test in all cases: SEC; analytical SEC, Superdex 200 Increase 10/300 GL, buffer W (100 mM Tris-HCl pH 8.0, 150 mM NaCl, 2.5 mM EDTA); protein solutions from the two AEC elution peaks; oligomeric state from the elution volume by the column's calibration
[1] = target: Chlamydomonas reinhardtii truncated hemoglobin THB11, full length (Chlamydomonas reinhardtii)
[2] = target: THB11-C (THB11 lacking the C-terminal 225 residues) (Chlamydomonas reinhardtii)
[3] = target: THB11-N (THB11 lacking the N-terminal 41 amino acids) (Chlamydomonas reinhardtii)

Chlamydomonas reinhardtii truncated hemoglobin THB11, full length (natural protein)
stoichiometry N [1]: 3 and 7

THB11-C (THB11 lacking the C-terminal 225 residues) (domain or fragment)
stoichiometry N [2]: 3

THB11-N (THB11 lacking the N-terminal 41 amino acids) (domain or fragment)
stoichiometry N [3]: 3 and 7

Source: article PMC7082302
